Source: patent US10881709B2, “Immune system modulators and compositions” (Canimguide Therapeutics AB, priority 2015, dated 2021)

The substances below were run on PBMCs from healthy control person (assay: PBMC activation (CD69/CD71, flow cytometry) in RPMI plus 10% human AB serum). Settings: 40 μg/mL, 24 hours, healthy PBMCs.
Type: cell-based
Method: The activity of peptide P28R (SEQ ID NO: 2) and modifications of P28R was studied in a human ex vivo model using PBMCs in short term cultures, 24 or 48 hours. Effects of P28R and modifications of P28R on PBMCs from a healthy control person were studied. Activation was measured as percentage of cells with enhanced marker CD69 using flow cytometry. PBMCs were incubated with the peptides (40 μg/mL) for 24 hours in RPMI plus 10% human AB serum.
As observed in Example 37, P28R (SEQ ID NO: 2) can stimulate PBMCs from healthy controls in short term cultures when RPMI plus 10% normal human AB serum is used as culture medium. Truncations of P28R were also assessed for their ability to activate PBMCs. PBMCs were incubated with the peptides (40 μg/mL) for 24 hours in RPMI plus 10% human AB serum. PBMC activation was measured as percent cells with enhanced expression of either CD69 (FIG. 42A) or CD71 (FIG. 42B) using flow cytometry. Two experiments were performed for each peptide.
Effects of modified peptides on activation of PBMCs from healthy control person were assessed. Activation was determined as percentage of cells with enhanced marker CD69 or CD71 using flow cytometry. PBMCs were incubated with the peptides (40 μg/mL) for 48 hours in RPMI plus 10% human AB serum.

Substance | PBMC activation, enhanced CD69 or CD71
KKLDTFFPKLSLFTER [SEQ ID NO: 329] | did not activate

Same assay, conditions: 40 μg/mL, 24 hours, healthy control person

Substance | PBMC activation, cells with enhanced CD69
KKLDTFFVNLSLFTER [SEQ ID NO: 518] | did not stimulate
KKLDTFFVKLSLFTFR [SEQ ID NO: 571] | did not stimulate
KKLDTFFVDLSLFTER [SEQ ID NO: 569] | did not stimulate
KSLDTFFVKLSLFTER [SEQ ID NO: 510] | did not stimulate
KKLDTVMVKLQLMTER [compound 30680] | induced activation

Same assay, conditions: 40 μg/mL, 48 hours, healthy control person

Substance | PBMC activation, enhanced CD69 and CD71
RKLDTFFVKLSLFTERRR [compound 32814] | stimulatory effect in short term cultures similar to that of P28R

The substances below were run on PBMCs (assay: IL-2 induced proliferation of PBMCs, 3H-thymidine incorporation (human ex vivo model)). Settings: PBMCs from healthy control samples, 7 days, 3H-thymidine.
Type: cell-based
Method: 100 μl of RPMI1640 supplemented with 200 IU/ml penicillin, […] streptomycin, 4 mM L-glutamine (all from Sigma® Chemical Co. MO, US) and 20% heat-inactivated human serum (autologous or from cancer patients) were added to uncoated, HSA or HSA/IgG coated tissue culture microtiter plates. PBMC, isolated from healthy individuals or patients with metastatic renal cell carcinoma, were diluted in RPMI/2% HSA at a concentration of 5×10^5/ml and 100 μl were added to the microtiter wells. Interleukin-2 (IL-2, Proleukin®, Chiron®, NL), at a final concentration of 120 IU/well, was added to some wells. Cells were cultured for 7 days in a humidified, 5% CO2-atmosphere at 37° C. Proliferation was assayed by incorporation of 1.6 μCi/well of [^3H]-thymidine (Amersham® Int., UK) during the last 18 hrs. Mean values of dpm (disintegrations per minute) of triplicates were used for the calculations.
Cultures for IL-2 induced proliferation was set up with PBMC from healthy donors and autologous serum as described above with the exception that PBMC were first pre-incubated for 30 min at room temperature with the indicated albumin peptides at a concentration of 10 μg/ml.
Round-bottomed, 96-well tissue culture plates (Costar®, Corning® Inc. NY, US) were pre-coated with HSA only or HSA and pooled human IgG for intravenous injection (Gammagard®, Baxter AS, DK) as follows; HSA was diluted in RPMI1640 without supplements to a concentration of 10 mg/ml. A mixture of 1 mg/ml IgG in a solution of 9 mg/ml HSA in RPMI (HSA/IgG) was also prepared. 200 μl of HSA or HSA/IgG were then added to each well of the plate. The plates were incubated at 4° C. for 30 minutes after which the wells were washed twice with 200 μl of RPMI1640. The coated plates were used immediately. 100 μl of RPMI1640 supplemented with 200 IU/ml penicillin, […] streptomycin, 4 mM L-glutamine (all from Sigma® Chemical Co. MO, US) and 20% heat-inactivated human serum (autologous) were added to the HSA or HSA/IgG coated tissue culture microtiter wells. PBMC, isolated from healthy individuals, were diluted in RPMI/2% HSA and peptides were added directly to the cell suspension at a concentration of 10 μg/ml. One hundred μl of this cell suspension (5×10^4 lymphocytes) was then added per well providing a final concentration of 5 μg/ml peptide per well. IL-2 (Proleukin®, Chiron®, NL), at a final concentration of 120 IU/well, was added to the wells. Cells were cultured for 7 days in a humidified, 5% CO2-atmosphere at 37° C. Proliferation was assayed by incorporation of 1.6 μCi/well of [^3H]-thymidine (Amersham® Int., UK) during the last 18 hrs. Mean values of dpm (disintegrations per minute) of triplicates were used for the calculations.
The model included PBMCs isolated from venous blood samples from healthy blood donors (control samples) or cancer patients. One hundred pI of culture medium (RPMI 1640 Dutch's modification (Gibco®, InVitrogenAB®, Stockholm, Sweden) supplemented with 200 IV/ml penicillin, 200 ug/ml streptomycin, 4 mM L-glutamine (all from Sigma® Chemical Co. MO, US) and 20% heat-inactivated human serum) were added to roundbottomed, 96-well tissue culture plates (Costar®, Corning® Inc. NY, US). […] Control sample wells without IL-2 was set up in parallel. […]
The effect of different peptides on IL-2 induced proliferation was analyzed in the human ex vivo model, using PBMCs from healthy control samples. […] Proliferation was measured as incorporation of ^3H-thymidine during the final 18 hours. […]

Substance | inhibition of IL-2 induced proliferation
KVPQVSTPTLVEVSR (listed as Homo sapiens) [P3029] | none

Each substance was assayed against P3028 (SEQ ID NO: 185) (Homo sapiens, UniProt P02768) (assay: PEPSCAN ELISA (rampo assay): binding of His-tagged P3028 to immobilised peptides). Settings: truncations, deletions, glycine substitutions.
Method: Based on the structure of peptide P28R, additional peptides were identified that bind to P3028. The additional binders included deletions, truncations, and or amino acid substitutions of peptide P28R. Binding of peptides to P3028 was assayed using PEPSCAN technology. PEPSCAN technology, or “rampo” assays are biochemical binding assays, details of which are provided below:
A peptide microarray screening technology was used to measure binding of P28R (SEQ ID NO: 2) and variants of P28R to P3028 (SEQ ID NO: 185). In this technology libraries of synthetic peptides are synthesized and covalently linked onto polypropylene microarray chips. The linear peptides were synthesized onto credit-card format polypropylene cards (455 peptide formats/card) as described by (Timmerman et al., 2004) using standard Fmoc-chemistry using hexamethylenediamine (HMDA) as linker and deprotection using trifluoroacetic acid (TFA) with scavengers.
The binding of His-tagged P3028 to each peptide on the card was tested in an ELISA assay. The 455-well credit card format polypropylene cards containing the covalently linked peptides were incubated with His-tagged P3028 peptide (PGE73) solution consisting of 0.5 μg/mL diluted in blocking solution (4% horse serum, 5% ovalbumin (w/v) in PBS/1% Tween). After washing, the peptides were incubated with a monoclonal mouse anti-His-tag antibody (Novagen®, 70796-3, diluted 1/1000 in the incubation buffer) and subsequently after washing with a rabbit-anti-mouse antibody peroxidase (Rampo) conjugate (Southern Biotech®, 6175-05, diluted 1/1000), for one hour at 25° C. After washing, the peroxidase substrate 2,2′-azine-di-3-ethylbenzthiazoline sulfonate (ABTS) and 2 μL of 3% H2O2 were added. The binding capacity of the mAb was measured as a color development at 405 nm (optical density, OD405). The color development was quantified with a charge-coupled device (CCD)—camera and an image processing system.
The OD405-values obtained by a CCD-camera was considered as raw data values (“rampo values,” “rampo units,” or “rampo scores”). The values mostly ranged from 0 to 3000, a log scale similar to 1 to 3 of a standard 96-well plate ELISA-reader. First the CCD-camera made a picture of the card before peroxidase coloring and then again a picture after the peroxidase coloring. […] These values were copied into an excel file and labeled as a raw data file. One follow-up manipulation was allowed. Sometimes a well can contain an air-bubble resulting in a false-positive value. If manual inspection of the cards detect an air-bubble the value are set to 0 for that well.
A library of peptides tested for binding to peptide P3028 included all substitutions for each position of the peptide P28R (SEQ ID NO: 2) (i.e., 19 substitutions for each position). The results of the binding experiments are shown in FIGS. 27, 28, 29 and 30 and Table 5.1. […] P28R had rampo values ranging between 262 and 460 with a mean value of 370. […] In addition, M and S in position 7 (SEQ ID NOs: 9 and 10, respectively), and Q and M in position 11 (SEQ ID NOs: 15 and 16, respectively) all have rampo values over 700.
For each position of P28R, the rampo scores of the group of 19 different peptides containing an L-amino acid substitution were compared to the rampo score of a control sample P28R peptide (SEQ ID NO: 2) for that group. Single-amino acid substitutions having a rampo score greater than or substantially equivalent to P28R were identified. As used herein, a rampo score “substantially equivalent to P28R” is a rampo score that is at least 98% of the rampo score of P28R. Thus, variants of P28R having equivalent or better binding to P3028 were identified.

Substance | rampo score / affinity to P3028 compared with P28R
KKLDTFFVKLSLFTE [SEQ ID NO: 34] | retained a high affinity
KKLDGFFVKLSLFTER [SEQ ID NO: 95] | comparable to P28R
KKGDTFFVKLSLFTER [SEQ ID NO: 287] | comparable to P28R
KKLDTFGVKLSLFTER [SEQ ID NO: 96] | comparable to P28R
KKLDTFFVKLSFTER [SEQ ID NO: 68] | comparable to, or higher than peptide P28R
KKLDTFVKLSLFTER [SEQ ID NO: 65] | comparable to, or higher than peptide P28R
KKFFVKLSLFTER [SEQ ID NO: 76] | comparable to, or higher than peptide P28R
KKLDTFFVKLGLFTER [SEQ ID NO: 99] | comparable to P28R
FVKL [SEQ ID NO: 63] | comparable rampo score
KKLDTFFVGLSLFTER [SEQ ID NO: 98] | comparable to P28R
KKLTFFVKLSLFTER [SEQ ID NO: 64] | comparable to, or higher than peptide P28R
